T1: recombinant human CD123-Fc (human, UniProt P26951 19-305)
T1 construct: not shown: Fc part of CD123-Fc
T1 sequence: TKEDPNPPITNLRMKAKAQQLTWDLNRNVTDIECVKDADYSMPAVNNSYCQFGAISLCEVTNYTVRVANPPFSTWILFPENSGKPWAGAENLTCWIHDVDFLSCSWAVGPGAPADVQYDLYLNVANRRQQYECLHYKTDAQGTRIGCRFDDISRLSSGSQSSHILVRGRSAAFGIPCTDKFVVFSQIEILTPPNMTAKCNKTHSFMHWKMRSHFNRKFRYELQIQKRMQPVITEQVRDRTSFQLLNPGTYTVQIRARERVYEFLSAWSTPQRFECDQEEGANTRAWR

B1: SEQ ID NO: 466 (designed binder)
chain: MGSWIFFKEQLAIIKWELEALGGSEAELAWFEDDIAAFEDDLQFYKGQGNPEVEALRKEAAAIRDELQAYRHN
notes: D domain, on phage
B2: SEQ ID NO: 435 (designed binder)
chain: MGSWHFFKDDLAWIKNELEALGGSEAELAMFEDDIAMFETMLQSYKGKGNPEVEALRKEAAAIRDELQAYRHN
notes: D domain, on phage
B3: SEQ ID NO: 436 (designed binder)
chain: MGSWHWFKTDLADIKEELEALGGSEAELAMFEDDIAEFEEFLQMYKGKGNPEVEALRKEAAAIRDELQAYRHN
notes: D domain, on phage
B4: SEQ ID NO: 442 (designed binder)
chain: MGSWGHFKQDLAWIKDTLEALGGSEAELAFFEDDIAMFEMELQDYKGKGNPEVEALRKEAAAIRDELQAYRHN
notes: D domain, on phage
B5: SEQ ID NO: 451 (designed binder)
chain: MGSWYWFKQDLAHIKSMLEALGGSEAELAWFEEDIADFESELQEYKGKGNPEVEALRKEAAAIRDELQAYRHN
notes: D domain, on phage
B6: SEQ ID NO: 459 (designed binder)
chain: MGSWIFFKQDLAEIKLNLEALGGSEAELAWFEDDIAWFESHLQDYKGKGNPEVEALRKEAAAIRDELQAYRHN
notes: D domain, on phage
B7: SEQ ID NO: 452 (designed binder)
chain: MGSWTFFKWDLADIKANLEALGGSEAELAWFEEDLAGFEAELQEYKGKGNPEVEALRKEAAAIRDELQAYRHN
notes: D domain, on phage
B8: SEQ ID NO: 455 (designed binder)
chain: MGSWQTFKDELAHIKWELEALGGSEAELAWFEWDIANFEEELQEYKGKGNPEVEALRKEAAAIRDELQAYRHN
notes: D domain, on phage
B9: SEQ ID NO: 456 (designed binder)
chain: MGSWYWFKEELAFIKWELEALGGSEAELALFEEDIAYFEEMLQEYKGKGNPEVEALRKEAAAIRDELQAYRHN
notes: D domain, on phage
B10: SEQ ID NO: 439 (designed binder)
chain: MGSWQWFKDDLAYIKETLEALGGSEAELALFEDMIADFEFELQWYKGKGNPEVEALRKEAAAIRDELQAYRHN
notes: D domain, on phage
B11: SEQ ID NO: 444 (designed binder)
chain: MGSWYWFKDDLAEIKGLLEALGGSEAELAEFEDEIAVFEQELQEYKGKGNPEVEALRKEAAAIRDELQAYRHN
notes: D domain, on phage
B12: SEQ ID NO: 437 (designed binder)
chain: MGSWWLFKDDLAEIKYWLEALGGSEAELAFFEDDIAEFERGLQIYKGKGNPEVEALRKEAAAIRDELQAYRHN
notes: D domain, on phage
B13: SEQ ID NO: 449 (designed binder)
chain: MGSWTYFKDDLADIKQWLEALGGSEAELAFFEIEIAEFEEELQEYKGKGNPEVEALRKEAAAIRDELQAYRHN
notes: D domain, on phage
B14: SEQ ID NO: 465 (designed binder)
chain: MGSWYVFKDELAEIKQFLEALGGSEAELAWFEDDIAEFETQLQHYKGKGNPEVEALRKEAAAIRDELQAYRHN
notes: D domain, on phage
B15: SEQ ID NO: 440 (designed binder)
chain: MGSWILFKDDLAWIKETLEALGGSEAELAFFEDNIADFEEQLQGYKGKGNPEVEALRKEAAAIRDELQAYRHN
notes: D domain, on phage
B16: SEQ ID NO: 460 (designed binder)
chain: MGSWHLFKWTLAEIKYELEALGGSEAELAWFEDDIATFEEELQWYKGKGNPEVEALRKEAAAIRDELQAYRHN
notes: D domain, on phage
B17: SEQ ID NO: 438 (designed binder)
chain: MGSWYEFKDDLAEIKEWLEALGGSEAELAFFELDIADFEWLLQLYKGKGNPEVEALRKEAAAIRDELQAYRHN
notes: D domain, on phage
B18: SEQ ID NO: 448 (designed binder)
chain: MGSWTFFKNDLAEIKDWLEALGGSEAELADFEWDIAEFEYSLQEYKGKGNPEVEALRKEAAAIRDELQAYRHN
notes: D domain, on phage
B19: SEQ ID NO: 450 (designed binder)
chain: MGSWTVFKYDLADIKWWLEALGGSEAELADFEEEIAEFEEELQEYKGKGNPEVEALRKEAAAIRDELQAYRHN
notes: D domain, on phage
B20: SEQ ID NO: 447 (designed binder)
chain: MGSWVFFKDDLADIKDELEALGGSEAELAFFEIAIALFEWELQEYKGKGNPEVEALRKEAAAIRDELQAYRHN
notes: D domain, on phage
B21: SEQ ID NO: 446 (designed binder)
chain: MGSWTFFKEDLAGIKWELEALGGSEAELAWFEDEIALFEEELQEYKGKGNPEVEALRKEAAAIRDELQAYRHN
notes: D domain, on phage
B22: SEQ ID NO: 401 (designed binder)
chain: MGSWQEFTMRLDAIYNRLETLGGSEAELAAFEKEIAAFESELQAYKGKGNPEVEWLRQSAANIRSELQAYRHN
notes: D domain, on phage
B23: SEQ ID NO: 469 (designed binder)
chain: MGSWEEFKEDLAEIKVWLEALGGSEAELAWFEMGIADFEDGLQFYKGKGNPEVEALRKEAAAIRDELQAYRHN
notes: D domain, on phage
B24: SEQ ID NO: 470 (designed binder)
chain: MGSWHWFKEDLANIKDWLEALGGSEAELAWFEDNIADFEGDLQVYKGKGNPEVEALRKEAAAIRDELQAYRHN
notes: D domain, on phage
B25: SEQ ID NO: 453 (designed binder)
chain: MGSWSFFKEELANIQVYLEALGGSEAELAWFEEDIADFEEDLQHYKGKGNPEVEALRKEAAAIRDELQAYRHN
notes: D domain, on phage
B26: SEQ ID NO: 454 (designed binder)
chain: MGSWEFFKYELADIKDELEALGGSEAELAWFEEDIATFEEWLQGYKGKGNPEVEALRKEAAAIRDELQAYRHN
notes: D domain, on phage
B27: SEQ ID NO: 445 (designed binder)
chain: MGSWMFFKEDLADIKWALEALGGSEAELAFFEEEIALFEQHLQQYKGKGNPEVEALRKEAAAIRDELQAYRHN
notes: D domain, on phage
B28: SEQ ID NO: 441 (designed binder)
chain: MGSWIVFKDDLADIKRWLEALGGSEAELAMFEDEIADFEWQLQDYKGKGNPEVEALRKEAAAIRDELQAYRHN
notes: D domain, on phage
B29: SEQ ID NO: 400 (designed binder)
chain: MGSWFEFWGRLEAIESRLKALGGSEAELAAFEKEIAAFESELQAYKGKGNPEVEELREHAAWIRAYLQAYRHN
notes: D domain, on phage
B30: SEQ ID NO: 461 (designed binder)
chain: MGSWVTFKDELADIKDFLEALGGSEAELAFFEVDIAEFEAELQFYKGKGNPEVEALRKEAAAIRDELQAYRHN
notes: D domain, on phage
B31: SEQ ID NO: 463 (designed binder)
chain: MGSWETFKYELAEIKDYLEALGGSEAELAWFEDDIAEFEFELQYYKGKGNPEVEALRKEAAAIRDELQAYRHN
notes: D domain, on phage
B32: SEQ ID NO: 462 (designed binder)
chain: MGSWVYFKDELADIKDFLEALGGSEAELAEFEEDIATFEYDLQWYKGKGNPEVEALRKEAAAIRDELQAYRHN
notes: D domain, on phage
B33: SEQ ID NO: 464 (designed binder)
chain: MGSWNTFKYELAEIKHFLEALGGSEAELAMFEDDIAMFEWELQEYKGKGNPEVEALRKEAAAIRDELQAYRHN
notes: D domain, on phage
B34: SEQ ID NO: 443 (designed binder)
chain: MGSWGYFKDDLAWIKGELEALGGSEAELAEFEWFIAVFEEDLQVYKGKGNPEVEALRKEAAAIRDELQAYRHN
notes: D domain, on phage
B35: SEQ ID NO: 457 (designed binder)
chain: MGSWNSFKDELAEIKAELEALGGSEAELAFFEEDIAWFEEHLQQYKGKGNPEVEALRKEAAAIRDELQAYRHN
notes: D domain, on phage
B36: SEQ ID NO: 458 (designed binder)
chain: MGSWDLFKWELAEIKLGLEALGGSEAELAEFEYDIAWFEEDLQDYKGKGNPEVEALRKEAAAIRDELQAYRHN
notes: D domain, on phage
B37: SEQ ID NO: 434 (designed binder)
chain: MGSWFYFKDDLADINYMLEALGGSEAELAMFEDDIAGFELTLLKYKGKGNPEVEALRKEAAAIRDELQAYRHN
notes: D domain, on phage
B38: SEQ ID NO: 467 (designed binder)
chain: MGSWEFFKEVLAEIKYDLEALGGSEAELAWFETDIAGFEIDLQVYKGKGNPEVEALRKEAAAIRDELQAYRHN
notes: D domain, on phage
B39: SEQ ID NO: 468 (designed binder)
chain: MGSWVFFKEDLATIKNDLEALGGSEAELAWFEMMIADFEADLQYYKGKGNPEVEALRKEAAAIRDELQAYRHN
notes: D domain, on phage
B40: SEQ ID NO: 432 (designed binder)
chain: MGSWFEFYERLDAINWRLFALGGSEAELAAFEKEIAAFESELQAYKGKGNPEVEALRGEAAAIREDLQAYRHN
notes: D domain, on phage
B41: SEQ ID NO: 433 (designed binder)
chain: MGSWNEFEDRLDAIWWRLFALGGSEAELAAFEKEIAAFESELQAYKGKGNPEVEALRVEAAFIRTMLQAYRHN
notes: D domain, on phage

Target: T1, recombinant human CD123-Fc
Experiment: phage ELISA, captured CD123-Fc
Description: Individual colonies containing phagemid from BCMA panning output were picked and phage were rescued in 96-well format using VCSM13 helper phage following standard protocols. To assay target binding by ELISA, 96-well plates were coated with 1.3 microg/ml goat anti-human IgG1-Fc antibody followed by incubation with 5 nM of recombinant human target (BCMA-Fc, CD123-Fc, AFP, or AFP123) or IgG1-Fc. 50 microl of rescued phage diluted 5× in ELISA blocking buffer was then added to each well. Binding was detected using an HRP-conjugated anti-M13 antibody and the ELISA ratio for each sequence is reported as the absorbance at 450 nm for target (i.e., BCMA-Fc, CD123-Fc, AFP, or AFP123) divided by that for IgG1-Fc averaged across all screened wells containing that clone.

Going from B1 to B2, the ELISA_avg falls from 15 ratio A450 target/IgG1-Fc to 3.2 ratio A450 target/IgG1-Fc.

Going from B3 to B4, the ELISA_avg rises from 3.5 ratio A450 target/IgG1-Fc to 4.9 ratio A450 target/IgG1-Fc.

Going from B5 to B6, the ELISA_avg rises from 3.3 ratio A450 target/IgG1-Fc to 3.8 ratio A450 target/IgG1-Fc.

Going from B7 to B8, the ELISA_avg rises from 4.8 ratio A450 target/IgG1-Fc to 5.5 ratio A450 target/IgG1-Fc.

Compared with B9, B10 is lower in ELISA_avg: 9.4 ratio A450 target/IgG1-Fc for the first, 6.3 ratio A450 target/IgG1-Fc for the second.

First: B11
Second: B12
The ELISA_avg of the first is higher: 10.4 ratio A450 target/IgG1-Fc for the first, 3.3 ratio A450 target/IgG1-Fc for the second.

Going from B13 to B14, the ELISA_avg rises from 4.6 ratio A450 target/IgG1-Fc to 9.9 ratio A450 target/IgG1-Fc.

First: B15
Second: B16
The ELISA_avg of the first is higher: 6 ratio A450 target/IgG1-Fc for the first, 4 ratio A450 target/IgG1-Fc for the second.

First: B17
Second: B18
The ELISA_avg of the first is lower: 3.8 ratio A450 target/IgG1-Fc for the first, 3.9 ratio A450 target/IgG1-Fc for the second.

Compared with B19, B20 is higher in ELISA_avg: 3.9 ratio A450 target/IgG1-Fc for the first, 8.8 ratio A450 target/IgG1-Fc for the second.

First: B21
Second: B22
The ELISA_avg of the first is lower: 7 ratio A450 target/IgG1-Fc for the first, 13.7 ratio A450 target/IgG1-Fc for the second.

Compared with B23, B24 is lower in ELISA_avg: 4.3 ratio A450 target/IgG1-Fc for the first, 3.3 ratio A450 target/IgG1-Fc for the second.

Compared with B25, B26 is lower in ELISA_avg: 3.8 ratio A450 target/IgG1-Fc for the first, 3.4 ratio A450 target/IgG1-Fc for the second.

Going from B27 to B28, the ELISA_avg rises from 3.2 ratio A450 target/IgG1-Fc to 3.9 ratio A450 target/IgG1-Fc.

Compared with B29, B30 is higher in ELISA_avg: 4.9 ratio A450 target/IgG1-Fc for the first, 7.6 ratio A450 target/IgG1-Fc for the second.

Compared with B31, B32 is higher in ELISA_avg: 4.4 ratio A450 target/IgG1-Fc for the first, 4.6 ratio A450 target/IgG1-Fc for the second.

Compared with B33, B34 is lower in ELISA_avg: 5 ratio A450 target/IgG1-Fc for the first, 4.5 ratio A450 target/IgG1-Fc for the second.

First: B35
Second: B36
The ELISA_avg of the first is lower: 3.3 ratio A450 target/IgG1-Fc for the first, 3.4 ratio A450 target/IgG1-Fc for the second.

Going from B37 to B38, the ELISA_avg rises from 3.7 ratio A450 target/IgG1-Fc to 8.2 ratio A450 target/IgG1-Fc.

Going from B39 to B40, the ELISA_avg falls from 3.1 ratio A450 target/IgG1-Fc to 3 ratio A450 target/IgG1-Fc.

In the case of B41, the ELISA_avg is reported as 5.1 ratio A450 target/IgG1-Fc.
